In publication PMC5584245 (Oncotarget, 2017):

T1: membrane CD24 on hepatoma cells (Huh-7, BEL-7402) (Homo sapiens, UniProt P25063)
T1 construct: cluster of differentiation 24 (CD24), GPI-linked membrane protein, endogenous on human hepatoma cell lines; also called CD24 receptors; CD24 ligand; source: endogenous, on Huh-7 and BEL-7402 cells
T1 chain: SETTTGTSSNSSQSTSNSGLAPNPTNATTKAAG

T2: CD24-GST (Homo sapiens, UniProt P25063)
T2 construct: cluster of differentiation 24 (CD24) fused to GST; also called GST-CD24
T2 chain: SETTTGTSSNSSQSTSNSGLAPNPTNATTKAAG


Tests used:
[1] = target: T1, membrane CD24 on hepatoma cells (Huh-7, …); assay: flow cytometry on cells; antibody on Huh-7 and BEL-7402 hepatoma cells, also after RNA interference against CD24; procedure as in ref. 12; details: one partner purified
CD24-GST = target: T2, CD24-GST; assay: SPR; Biacore X100; CD24-GST flowed over immobilized antibody; 1:1 binding model; procedure as in ref. 45; details: both partners purified

binding rate to BEL-7402 cells [1] [%] | binding rate to Huh-7 cells [1] [%] | Kd (CD24-GST) [pM] | koff (CD24-GST) [s⁻¹] | kon (CD24-GST) [M⁻¹ s⁻¹] | Binder
79.3 | 88.4 | 191 | 0.000336 | 1.76e+06 | chimeric antibody cG7 (antibody, V domains shown, murine VH of G7mAb (G7mAb-VH); human heavy-chain constant region of the chimeric antibody; murine VL of G7mAb (G7mAb-VL); human light-chain constant region of the chimeric antibody; Chimeric: murine G7mAb variable domains on human constant regions; The vectors of the laboratory hold IgG1 H and L chains and the constant region of the humanized antibodies is from Cetuximab; also called parental …) VH: QVKLEESGGGLVQPGGSLKISCAASGFDFSRYWMSWVRQAPGKGLEWIGEINPDSSTINYTPSLRDKFIISRDNAKNTLYLQMSKVRYEDTSLYYCARQGDYWGQGTSVTVSS VL: not shown
 |  | 570 |  |  | hG7-BM3 (hVH-B2, hVL-B1) (antibody, V domains shown) VH: QVQLVESGGGVVQPGRSLRLSCAASGFTFSRYWMSWVRQAPGKGLEWIAEINPDSSTINYTPSLRDKFTISRDNSKNTLYLQMSSLRAEDTAVYYCARQGDYWGQGTLVTVSS VL: DIVMTQTPLSLSVTPGQPASISCKSSQSLLHSDGKTYLNWYLQKPGQSPQRLIYLVSKLDSGVPDRFSGSGSGTDFTLKISRVEAEDVGVYYCWQGAHFPYTFGQGTKLEIK
